What was measured:
Assay in all cases: fibrinogen 15mer peptide array
[1] = substrate: T1, FIBB 235-249
T1 sequence (peptide): PYRVYCDMNTENGGW

[2] = substrate: T2, FIBB 258-262
T2 sequence (peptide): SVDFGRKWDPYKQGF

[3] = substrate: T3, FIBB 283-297
T3 sequence (peptide): KNYCGLPGEYWLGND

[4] = substrate: T4, FIBB 107-121
T4 sequence (peptide): VSQTSSSSFQYMYLL

[5] = substrate: T5, FIBB 139-153
T5 sequence (peptide): VNEYSSELEKHQLYI

[6] = substrate: T6, FIBB 427-431
T6 sequence (peptide): AKHGTDDGVVWMNWK

[7] = substrate: T7, FIBB 71-85
T7 sequence (peptide): DLGVLCPTGCQLQEA

[8] = substrate: T8, FIBB 191-205
T8 sequence (peptide): EYCRTPCTVSCNIPV

[9] = substrate: T9, FIBB 391-405
T9 sequence (peptide): RKQCSKEDGGGWWYN

[10] = substrate: T10, FIBB 407-421
T10 sequence (peptide): CHAANPNGRYYWGGQ

[11] = substrate: T11, FIBB 395-409
T11 sequence (peptide): SKEDGGGWWYNRCHA

[12] = substrate: T12, FIBB 63-77
T12 sequence (peptide): GGCLHADPDLGVLCP

[13] = substrate: T13, FIBB 315-329
T13 sequence (peptide): EDWKGDKVKAHYGGF

[14] = substrate: T14, FIBB 319-333
T14 sequence (peptide): GDKVKAHYGGFTVQN

[15] = substrate: T15, FIBB 415-429
T15 sequence (peptide): RYYWGGQYTWDMAKH

FIBG 202-216 = target: T16, FIBG 202-216
T16 sequence (peptide): DFKKNWIQYKEGFGH

FIBA 507-521 = target: T17, FIBA 507-521
T17 sequence (peptide): FPGFFSPMLGEFVSE

FIBG 287-301 = target: T18, FIBG 287-301
T18 sequence (peptide): GDAFDGFDFGDDPSD

FIBG 123-137 = target: T19, FIBG 123-137
T19 sequence (peptide): NLKEKVAQLEAQCQE

FIBG 214-228 = target: T20, FIBG 214-228
T20 sequence (peptide): FGHLSPTGTTEFWLG

FIBG 206-220 = target: T21, FIBG 206-220
T21 sequence (peptide): NWIQYKEGFGHLSPT

FIBG 15-29 = target: T22, FIBG 15-29
T22 sequence (peptide): FGSYCPTTCGIADFL

FIBA 218-232 = target: T23, FIBA 218-232
T23 sequence (peptide): FKSQLQKVPPEWKAL

FIBG 303-317 = target: T24, FIBG 303-317
T24 sequence (peptide): FFTSHNGMQFSTWDN

FIBA 514 528 = target: T25, FIBA 514 528
T25 sequence (peptide): FSPMLGEFVSETESR

FIBA 602-616 = target: T26, FIBA 602-616
T26 sequence (peptide): RGHAKSRPVRGIHTS

FIBG 7-21 = target: T27, FIBG 7-21
T27 sequence (peptide): NCCILDERFGSYCPT

FIBG 335-349 = target: T28, FIBG 335-349
T28 sequence (peptide): WMNKCHAGHLNGVYY

B1: antibody G or 45-C1C3 antibody (antibody, V domains shown)
VH: EVQLVESGGGAVQPGRSLRLSCAASGVSFSNIGMHWVRQAPGKGLEWVALISSDGRHTHYADSVKGRFTISRDNSENTLYLQINGLRADDTAVYYCAKGLDTRARYMGKFYTFDYWGQGTLVTVSS
VL: DIQLTQSPSSLSASVGDRVTITCRASQNIGVNLNWYQQRPGKGPKLLVSSTFSLQSGVPSRFSASGAGTNFTLTISSLQPEDYVTYYCQQSYSSPFTFGPGTKVDIK
- signal intensity (RLU) [1]: 3610 RLU
- signal intensity (RLU) [2]: 6910 RLU
- signal intensity (RLU) [3]: 8780 RLU
- signal intensity (RLU) [4]: 2930 RLU
- signal intensity (RLU) [5]: 6790 RLU
- signal intensity (RLU) [6]: 2640 RLU
- signal intensity (RLU) [7]: 2550 RLU
- signal intensity (RLU) [8]: 2790 RLU
- signal intensity (RLU) [9]: 2980 RLU
- signal intensity (RLU) [10]: 9200 RLU
- signal intensity (RLU) [11]: 3470 RLU
- signal intensity (RLU) [12]: 2780 RLU
- signal intensity (RLU) [13]: 5070 RLU
- signal intensity (RLU) [14]: 2670 RLU
- signal intensity (RLU) [15]: 12900 RLU
- signal intensity (RLU) (FIBG 202-216): 9080 RLU
- signal intensity (RLU) (FIBA 507-521): 3370 RLU
- signal intensity (RLU) (FIBG 287-301): 11400 RLU
- signal intensity (RLU) (FIBG 123-137): 3130 RLU
- signal intensity (RLU) (FIBG 214-228): 8260 RLU
- signal intensity (RLU) (FIBG 206-220): 6580 RLU
- signal intensity (RLU) (FIBG 15-29): 3150 RLU
- signal intensity (RLU) (FIBA 218-232): 6880 RLU
- signal intensity (RLU) (FIBG 303-317): 6750 RLU
- signal intensity (RLU) (FIBA 514 528): 5030 RLU
- signal intensity (RLU) (FIBA 602-616): 2570 RLU
- signal intensity (RLU) (FIBG 7-21): 5760 RLU
- signal intensity (RLU) (FIBG 335-349): 50000 RLU

Reference: patent publication US20230331869A1
